US20260167737A1 (BIGHAT BIOSCIENCES, published 2026)
Where a chain is given by its changes, count along the chain named.

T1: CDH17 (UniProt Q12864 23-787, limits assumed)
T1 construct: also called cadherin 17
T1 sequence (looked up): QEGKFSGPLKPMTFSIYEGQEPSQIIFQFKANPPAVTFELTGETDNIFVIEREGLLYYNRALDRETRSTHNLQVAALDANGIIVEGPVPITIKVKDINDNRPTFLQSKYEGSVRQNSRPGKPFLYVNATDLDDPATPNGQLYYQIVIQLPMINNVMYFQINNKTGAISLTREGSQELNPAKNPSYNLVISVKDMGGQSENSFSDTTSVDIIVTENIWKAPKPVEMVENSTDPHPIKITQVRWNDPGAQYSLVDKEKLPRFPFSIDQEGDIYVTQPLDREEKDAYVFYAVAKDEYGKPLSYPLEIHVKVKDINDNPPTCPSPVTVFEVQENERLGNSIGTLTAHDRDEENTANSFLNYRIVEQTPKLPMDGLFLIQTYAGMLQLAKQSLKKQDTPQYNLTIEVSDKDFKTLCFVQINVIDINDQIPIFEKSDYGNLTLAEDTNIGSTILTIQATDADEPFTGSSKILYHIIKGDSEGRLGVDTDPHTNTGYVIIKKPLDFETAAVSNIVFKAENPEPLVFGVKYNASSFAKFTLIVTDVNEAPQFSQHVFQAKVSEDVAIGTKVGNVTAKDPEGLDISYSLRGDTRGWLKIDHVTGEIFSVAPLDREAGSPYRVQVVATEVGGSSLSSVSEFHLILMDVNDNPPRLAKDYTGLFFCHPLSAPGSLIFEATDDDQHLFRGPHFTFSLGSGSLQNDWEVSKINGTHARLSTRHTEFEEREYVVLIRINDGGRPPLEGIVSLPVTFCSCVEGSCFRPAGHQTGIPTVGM

B1: CDH17_vhh_0001 (VHH)
VHH: QVQLQESGGGLVQPGGSTRLSCVSSRTFSYYDMGWFRQAPGKEREFVALLSWNGENAEYSDSVMGRFTVSRGNTQNSVNLQMNNLKPEDTGIYYCAVTHGGARSVRSWGQGTQVTVSS
notes: also called parental VHH-0001
B2: CDH17_vhh_0156 (BHB156) (VHH)
VHH: B1 VHH with N53R, E55N, H99Y
B3: CDH17_vhh_0173 (VHH)
VHH: B1 VHH with N53R, E55N, S60R, H99Y
B4: CDH17_vhh_0259 (VHH)
VHH: B1 VHH with A39Y, N53R, E55N, H99Y
B5: CDH17_vhh_0262 (VHH)
VHH: B1 VHH with N53R, E55N, S62T, H99Y
B6: CDH17_vhh_0263 (VHH)
VHH: B1 VHH with N53R, E55N, N56Y, T68V, H99Y
B7: CDH17_vhh_0267 (VHH)
VHH: B1 VHH with Q38Y, N53R, E55N, S60A, H99Y
B8: CDH17_vhh_0271 (VHH)
VHH: B1 VHH with N53R, E55N, T68V, H99Y, G101V
B9: CDH17_vhh_0274 (VHH)
VHH: B1 VHH with N53R, E55N, T68V, H99Y, R103K
B10: CDH17_vhh_0372 (VHH)
VHH: B1 VHH with S51D, N53R, E55N, H99Y
B11: CDH17_vhh_0395 (VHH)
VHH: B1 VHH with N53R, E55N, D61E, H99Y
B12: CDH17_vhh_0587 (VHH)
VHH: B1 VHH with N53R, E55I, H99Y
B13: CDH17_vhh_0591 (VHH)
VHH: B1 VHH with N53R, E55N, H99Y, S107L
B14: CDH17_vhh_0613 (VHH)
VHH: B1 VHH with N53R, H99Y
B15: CDH17_vhh_0622 (VHH)
VHH: B1 VHH with R26I, N53R, H99Y
B16: CDH17_vhh_0629 (VHH)
VHH: B1 VHH with S51D, N53R, H99Y
B17: CDH17_vhh_0632 (VHH)
VHH: B1 VHH with N53R, N56R, H99Y
B18: CDH17_vhh_0644 (VHH)
VHH: B1 VHH with N53R, E55N, S60R, T68V, H99Y, G101V
B19: CDH17_vhh_0645 (VHH)
VHH: B1 VHH with A39Y, N53R, E55N, N56Y, T68V, H99Y
B20: CDH17_vhh_0646 (VHH)
VHH: B1 VHH with N53R, E55N, S60R, H99Y, S107L
B21: CDH17_vhh_0648 (VHH)
VHH: B1 VHH with N53R, E55N, T68V, H99Y, G101V, R103K
B22: CDH17_vhh_0650 (VHH)
VHH: B1 VHH with N53R, E55N, S60R, H99Y, R103K, S107L
B23: CDH17_vhh_0651 (VHH)
VHH: B1 VHH with A39Y, N53R, E55N, T68V, H99L, G101V
B24: CDH17_vhh_0652 (VHH)
VHH: B1 VHH with A39Y, N53R, E55N, N56Y, T68V, H99Y, S107L
B25: CDH17_vhh_0653 (VHH)
VHH: B1 VHH with N53R, E55I, S62T, T68V, H99Y, G101V
B26: CDH17_vhh_0670 (VHH)
VHH: B1 VHH with S51D, N53R, E55N, N56Y, H99Y
B27: CDH17_vhh_0672 (VHH)
VHH: B1 VHH with N53R, E55N, M64H, H99Y, S107L
B28: CDH17_vhh_0674 (VHH)
VHH: B1 VHH with N53R, E55N, S62T, H99Y, S107K
B29: CDH17_vhh_0675 (VHH)
VHH: B1 VHH with N53R, E55N, S62T, H99Y, S107A
B30: CDH17_vhh_0676 (VHH)
VHH: B1 VHH with N53R, E55N, S62D, H99Y, G101T
B31: CDH17_vhh_0677 (VHH)
VHH: B1 VHH with N53R, E55N, S62D, H99Y, G101K
B32: CDH17_vhh_0688 (VHH)
VHH: B1 VHH with N53R, E55N, S62D, H99Y, G101N
B33: CDH17_vhh_0689 (VHH)
VHH: B1 VHH with N53R, E55N, S62F, H99Y, S107L
B34: CDH17_vhh_0945 (VHH)
VHH: B1 VHH with N53R, E55N, M64H, H99Y, G101V, S107L
B35: CDH17_vhh_0946 (VHH)
VHH: B1 VHH with N53R, E55N, S62F, H99Y, G101V, S107L
B36: CDH17_vhh_0948 (VHH)
VHH: B1 VHH with N53R, E55N, S62D, M64H, H99Y, S107L
B37: CDH17_vhh_0949 (VHH)
VHH: B1 VHH with N53R, E55N, S62D, H99Y, G101K, S107L
B38: CDH17_vhh_0950 (VHH)
VHH: B1 VHH with N53R, E55N, A57S, M64H, H99Y, S107L
B39: CDH17_vhh_0951 (VHH)
VHH: B1 VHH with N53R, E55N, S62D, H99Y, G101T, S107L
B40: CDH17_vhh_0952 (VHH)
VHH: B1 VHH with N53R, E55N, S62D, H99Y, G101N, S107L

Legend:
[1] = biological target: CDH17 on SNU16 cells (UniProt Q12864)
[2] = biological target: T1, CDH17
[3] = biological target: T1, CDH17; experiment: method not stated; KD at pH 7.4

| Molecule | Kd [3] [nM] | also measured |
| --- | --- | --- |
| isotype vedotin (Fc fusion) | – | cytotoxicity IC50 of the negative control (no asterisk: isotype control vedotin ADC), SNU16 (gastric) cells [1]: > 100 nM; cytotoxicity IC50 of the negative control (no asterisk: isotype control vedotin ADC), AsPC1 (PDAC) cells [2]: > 100 nM; cytotoxicity IC50 of the negative control (no asterisk: isotype control vedotin ADC), CAPAN2 (PDAC) cells (ABC <LLOD) [2]: > 100 nM; cytotoxicity IC50 of the negative control (no asterisk: isotype control vedotin ADC), LoVo (CRC) cells (ABC <LLOD) [2]: > 100 nM; cytotoxicity IC50 of the negative control (no asterisk: isotype control vedotin ADC), NCI-H508 (CRC) cells [2]: 0.301 nM; cytotoxicity IC50 of the negative control (no asterisk: isotype control vedotin ADC), SW403 (CRC) cells [2]: > 100 nM; cytotoxicity IC50 of the negative control (no asterisk: isotype control vedotin ADC), SW837 (CRC) cells (ABC <LLOD) [2]: > 100 nM |
| B1 | 27.2 | – |
| B2 | 7.59 | – |
| B3 | 4.94 | – |
| B4 | 4.75 | – |
| B5 | 5.14 | – |
| B6 | 3.94 | – |
| B7 | 5.08 | – |
| B8 | 2.82 | – |
| B9 | 4.35 | – |
| B10 | 4.85 | – |
| B11 | 5.47 | – |
| B12 | 5.01 | – |
| B13 | 3.21 | – |
| B14 | 4.85 | – |
| B15 | 2.93 | – |
| B16 | 4.96 | – |
| B17 | 4.9 | – |
| B18 | 3.32 | – |
| B19 | 5.17 | – |
| B20 | 2.63 | – |

| Molecule | Kd [3] [nM] | also measured |
| --- | --- | --- |
| B21 | 2.18 | – |
| B22 | 2.45 | – |
| B23 | 3.71 | – |
| B24 | 3.3 | – |
| B25 | 3.12 | – |
| B26 | 4.53 | – |
| B27 | 3.76 | – |
| B28 | 3.79 | – |
| B29 | 3.89 | – |
| B30 | 4.36 | – |
| B31 | 2.65 | – |
| B32 | 5.43 | – |
| B33 | 4.83 | – |
| B34 | 2.15 | – |
| B35 | 2.04 | – |
| B36 | 3.94 | – |
| B37 | 2.01 | – |
| B38 | 3.81 | – |
| B39 | 1.81 | – |
| B40 | 2.61 | – |
